Tests used:
[1] = target: GST-TA3mut (functionally impaired TA3 mutant, aa 361-370 replaced by alanines, fused to GST) (mouse) (UniProt Q04207); assay: pull-down; GST alone, GST-TA3 or GST-TA3mut as baits; transfected HEK-293 cells overexpressing tagged Zbtb7a; Zbtb7a detected by immunoblotting
[2] = target: GST-TA3mut (functionally impaired TA3 mutant, aa 361-370 replaced by alanines, fused to GST) (mouse) (UniProt Q04207); assay: affinity purification with mass spectrometry; SILAC; GST baits (GST-TA3, GST-TA3mut) immobilised; nuclear extracts of TNF-α-treated HeLa S3 cells or of 3T3 fibroblasts, 4 hours at 4°C; wash 20 mM Hepes pH 7.6, 1 mM EDTA, 10% glycerol, 0.1% NP40, 100 mM KCl; elution with 0.2% sarkosyl; label swap, four biological replicates

Chain of UniProt Q04207 (Q04207 other isoform, or with tags, fused parts or gaps, change not shown): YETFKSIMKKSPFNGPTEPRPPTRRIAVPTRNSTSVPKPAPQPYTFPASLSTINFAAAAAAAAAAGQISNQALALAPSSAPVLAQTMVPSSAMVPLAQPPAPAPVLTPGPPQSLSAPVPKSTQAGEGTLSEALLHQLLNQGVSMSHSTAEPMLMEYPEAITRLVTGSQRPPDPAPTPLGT

| Substance | fold reduction of binding against unmutated TA3 [1] [times] | fold reduction of binding against unmutated TA3 [2] [times] |
| --- | --- | --- |
| tagged Zbtb7a overexpressed in transfected HEK-293 cells (from UniProt O88939 1-569) (natural protein) | 2 |  |
| Zbtb7a, endogenous in nuclear extracts of TNF-α-stimulated human HeLa S3 cells (from UniProt O95365 1-584) (natural protein) |  | 5 to 7 |
